Results from patent US5691180.

Experiments:
[1] = molecular target: iminobiotinylated bovine fetuin (bovine) (UniProt P12763)
[2] = molecular target: IgG-Sepharose (Pharmacia); assay: IgG-Sepharose batch adsorption of conditioned medium, GalNAc-transferase activity assayed on the beads (Table 1B, Sepharose-IgG: applied 4914, flowthrough 214, bound 1853 units)

Released activity (units) of GalNAc-transferase [1] [units]	percent of applied activity bound [2] [%]	Substance
8390	–	UDP-GalNAc: NeuAcα2,3Galβ-R β1,4-N-acetyl-galactosamine-transferase encoded by pCDM8-CT (full-length, wild type enzyme)
9830	37	protein A-GalNAc-transferase fusion protein (pPROTA-CTc) (from UniProt P38507) (enzyme)
